Reference: publication PMC4888843

How the values were obtained:
mouse Bcl-2ΔC22 (mouse) = mouse Bcl-2ΔC22 (mouse) (UniProt P10417); test: SPR
human BAXΔC21 (human) = human BAXΔC21 (human) (UniProt Q07812); test: SEC
[1] = biological target: human MCL-1ΔN170ΔC23 (human) (UniProt Q07820); test: ELISA

Substance: mBak Q75L BH3 synthetic peptide
- fold weaker affinity than wild-type mBak BH3 (mouse Bcl-2ΔC22 (mouse)): 2.5 fold

Substance: human BAXΔC21 (from UniProt Q07812 1-171) (domain or fragment)
- stoichiometry N (human BAXΔC21 (human)): 2

Substance: phage-displayed human BAK BH3 peptide G82E (from UniProt Q16611 67-92)
- IC50 [1]: > 10 µM
